Laboratory results published in publication PMC6519983.

Molecular target: microtubules (MTs) formed in Xenopus egg extracts (Xenopus laevis (endogenous in egg extract))
Test: TIRF microscopy of GFP-TPX2 on microtubules; endogenous TPX2 immunodepleted and replaced with 20-30 nM (25 nM) GFP-TPX2 in Xenopus egg extract; 10 µM RanQ69L, 0.5 mM vanadate; silane-passivated coverslips; rise of TPX2 intensity at single pixels of individual de novo MTs before the first branch, normalised by the fluorescence of a single GFP-TPX2 molecule

- binding rate (molecules μm^−1 s^−1): 0.4
Substance: Full-length TPX2 with N-terminal Strep II-6xHis-GFP-TEV site tags (natural protein)
